In patent publication US20220220158A1:

Legend:
[1] = target: antibodies of human serum sample 16CDV61278; assay: DAGS blocking; signal antigen m1 SS-ZIKA-NS1-wing
[2] = target: antibodies of human serum sample 16CDV61197; assay: DAGS blocking; signal antigen m1 SS-ZIKA-NS1-wing
[3] = target: antibodies of human serum sample 16CDV61275; assay: DAGS blocking; signal antigen m1 SS-ZIKA-NS1-wing
[4] = target: antibodies of human serum sample 16CDV61278; assay: DAGS blocking; signal antigen m3 S-ZIKA-NS1-ß-ladder
[5] = target: antibodies of human serum sample 16CDV61197; assay: as above
[6] = target: antibodies of human serum sample 16CDV61275; assay: as above

B1: Dengue virus type 4 NS1 full length aa 1-352 (protein)
chain: DTGCAVSWSGKELKCGSGIFVIDNVHTWTEQYKFQPESPARLASAILNAHEDGVCGIRSTTRLENIMWKQITNELNYVLWEGGHDLTVVAGDVKGVLSKGKRALAPPVNDLKYSWKTWGKAKIFTPEAKNSTFLIDGPDTSECPNERRAWNFLEVEDYGFGMFTTNIWMKFREGSSEVCDHRLMSAAIKDQKAVHADMGYWIESSKNQTWQIEKASLIEVKTCLWPKTHTLWSNGVLESQMLIPKAYAGPFSQHNYRQGYATQTVGPWHLGKLEIDFGECPGTTVTIQEDCDHRGPSLRTTTASGKLVTQWCCRSCTMPPLRFLGEDGCWYGMEIRPLSEKEENMVKSQVSA
With B1 the Blocking [%] [1] was 4.5%, the Blocking [%] normalized to Zika [1] was 4.9% and the counts [1] was 2880 counts. For the same binder, the Blocking [%] [2] was 0.891%, the Blocking [%] normalized to Zika [2] was 1.2% and the counts [2] was 2900 counts. The Blocking [%] [3] was 2.48%, the Blocking [%] normalized to Zika [3] was 3.3% and the counts [3] was 3040 counts. The Blocking [%] [4] was 2.6%, the Blocking [%] normalized to Zika [4] was 3.7% and the counts [4] was 2830 counts. It also gave a Blocking [%] [5] of 31.6%, a Blocking [%] normalized to Zika [5] of 50.3% and a counts [5] of 2320 counts. For the same binder, the Blocking [%] [6] was 25.1%, the Blocking [%] normalized to Zika [6] was 27.3% and the counts [6] was 2730 counts.
